Test results: patent US12630632B2, “Bispecific HER2 and CD3 binding molecules” (Memorial Sloan Kettering Cancer Center, priority 2017, dated 2026)

System: naïve T cells
Assay: T cell proliferation (WST-8)
Format: cell-based, human
Conditions: 67 nM antibody, 6 days
Protocol: For T cell proliferation, naïve T cells were purified from human PBMC using Pan T cell isolation kit (Miltenyi Biotec). 2×10^5 purified T cells were mixed with different antibodies in 96-well cell culture plate to a final volume of 250 μl/well. T cells were cultured and maintained in RPMI-1640 supplemented with 10% FBS in 37° C. for 6 days. T cell proliferation was quantitated using the WST-8 kit as described above.

B1: huOKT3 Fab: monovalent Fab prepared from huOKT3 IgG1 (antibody, V domains shown)
VH: QVQLVQSGGGVVQPGRSLRLSCKASGYTFTRYTMHWVRQAPGKGLEWIGYINPSRGYTNYNQKFKDRFTISRDNSKNTAFLQMDSLRPEDTGVYFCARYYDDHYCLDYWGQGTPVTVSS
VL: DIQMTQSPSSLSASVGDRVTITCSASSSVSYMNWYQQTPGKAPKRWIYDTSKLASGVPSRFSGSGSGTDYTFTISSLQPEDIATYYCQQWSSNPFTFGQGTKLQITR
With B1 the “T cell proliferation in the absence of tumor targets” value was “negligible effects”.
